Laboratory results published in doi:10.1101/207886.

Target: MBP-fused Cas3 (E. coli) (UniProt P38036)
Experiment: single-molecule TIRF fluorescence

Chain of UniProt P38036 (P38036 whole entry, the tested form may be a part): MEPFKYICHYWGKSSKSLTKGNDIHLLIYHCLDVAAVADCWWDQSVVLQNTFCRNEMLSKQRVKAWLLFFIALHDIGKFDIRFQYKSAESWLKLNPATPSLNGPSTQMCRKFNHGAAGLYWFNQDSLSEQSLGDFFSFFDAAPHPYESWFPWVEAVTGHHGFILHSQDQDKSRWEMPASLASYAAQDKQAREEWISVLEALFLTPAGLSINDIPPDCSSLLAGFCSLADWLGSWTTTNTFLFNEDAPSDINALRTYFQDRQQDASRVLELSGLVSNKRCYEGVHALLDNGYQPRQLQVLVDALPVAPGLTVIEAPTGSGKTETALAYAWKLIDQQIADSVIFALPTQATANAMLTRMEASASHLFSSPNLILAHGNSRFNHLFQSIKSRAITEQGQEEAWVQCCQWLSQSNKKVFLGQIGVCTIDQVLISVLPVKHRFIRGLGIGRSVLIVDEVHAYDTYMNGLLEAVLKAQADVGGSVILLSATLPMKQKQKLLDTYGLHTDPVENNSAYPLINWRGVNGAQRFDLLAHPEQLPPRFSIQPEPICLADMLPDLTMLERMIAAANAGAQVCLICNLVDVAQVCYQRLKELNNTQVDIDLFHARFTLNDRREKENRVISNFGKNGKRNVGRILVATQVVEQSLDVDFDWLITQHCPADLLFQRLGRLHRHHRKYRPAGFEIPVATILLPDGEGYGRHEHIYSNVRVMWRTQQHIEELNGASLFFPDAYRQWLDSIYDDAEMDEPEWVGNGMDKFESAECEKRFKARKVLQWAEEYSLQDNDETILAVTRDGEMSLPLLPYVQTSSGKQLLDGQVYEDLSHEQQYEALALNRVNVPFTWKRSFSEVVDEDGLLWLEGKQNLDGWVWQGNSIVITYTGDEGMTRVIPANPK

dwell-time: 1.63 s
Substance: Cascade complex (RNA-guided surveillance complex), bound to dye-labelled target DNA (from UniProt Q46901 1-502)
